Experimental data reported in patent publication US20210054388.

System: Zif268::FokI zinc finger nuclease (synthetic)
Assay: cell_activity
Conditions: N. tabacum leaf, pLSLZ.D + p35SREP, 7 dpi; 6 of 8 sequenced resistant clones mutated

Zif268 target site in gus::nptII reporter
activity (% of reporter genes with NHEJ mutations): 10
